We go through 4 molecules from paper doi:10.1101/2021.08.16.456495 (bioRxiv, 2021).

For assay [1], the target named is Transcobalamin (TC), B12-bound, as in the TC:TCblR complex (human, UniProt P20062). As to the kind of experiment: crystal structure.
The target of assay [2] is B12-bound complex of transcobalamin (TC) and its receptor TCblR (Homo sapiens). As to the kind of experiment: MST.
The target in assay [3] is Transcobalamin receptor TCblR (CD320), crystallization construct, as in the TC:TCblR complex (human, UniProt Q9NPF0). As to the kind of experiment: crystal structure.
Transcobalamin receptor TCblR (CD320), crystallization construct, as in the TC:TCblR complex, sequence (Q9NPF0 53-171, one chain of several): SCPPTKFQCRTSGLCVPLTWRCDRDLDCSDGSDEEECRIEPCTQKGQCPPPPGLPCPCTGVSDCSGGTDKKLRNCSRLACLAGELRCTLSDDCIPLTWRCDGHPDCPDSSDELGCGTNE

B12-bound complex of transcobalamin (TC) and its receptor TCblR (Homo sapiens), sequence (P20062 19-427 R227Q, chain 1 of 2): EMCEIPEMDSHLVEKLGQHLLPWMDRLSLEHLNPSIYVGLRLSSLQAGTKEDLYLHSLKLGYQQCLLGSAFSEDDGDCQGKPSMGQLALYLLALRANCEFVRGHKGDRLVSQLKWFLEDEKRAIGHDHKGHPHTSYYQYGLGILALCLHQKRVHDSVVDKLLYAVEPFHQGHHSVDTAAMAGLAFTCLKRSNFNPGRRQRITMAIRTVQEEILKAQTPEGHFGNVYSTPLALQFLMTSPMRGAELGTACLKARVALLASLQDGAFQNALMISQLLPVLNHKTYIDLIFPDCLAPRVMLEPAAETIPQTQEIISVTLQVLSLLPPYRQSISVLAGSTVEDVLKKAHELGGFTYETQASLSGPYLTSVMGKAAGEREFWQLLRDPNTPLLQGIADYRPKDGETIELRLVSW
B12-bound complex of transcobalamin (TC) and its receptor TCblR (Homo sapiens), sequence (Q9NPF0 53-171, chain 2 of 2, further chain): as the sequence (Q9NPF0 53-171, one chain of several) above
Transcobalamin (TC), B12-bound, as in the TC:TCblR complex, sequence (P20062 19-427, one chain of several): as the sequence (P20062 19-427 R227Q, chain 1 of 2) above, with Q209R counted along it

B1: Nanobody TCNB26 (VHH)
VHH: QVQLVESGGGLVQAGESLRLSCAASGRTFAMAWFRQAPGKEREFVAVRGWLGVTTYYADSVKGRFTISRDNAKNTLDLQMNSLKPEDTAVYYCAAGQYSSSLYDRETEYNYWGQGTRVTVSS
With B1, the binding result in assay [1] is reported as “binds”. The Kd (commonly the constant that tells how readily two partners part at equilibrium) in assay [2] was 87.4 nM.

B2: Nanobody TCNB34 (VHH)
VHH: QWQLVESGGGLVQPGGSLRLSCAASGSTFSSYAMGWYRQAPGKECELVAAISRAGGSTNYADSVKGRFTISRDNAKNTVYLQMNSLKPEDTAVYYCNAAAEGETGSNWSLCEEYDYWGKGTRVTVSS
B2: in assay [1], the binding result is “binds”. Binding in assay [2] was characterised by a dissociation constant (Kd) of 12.8 nM.

B3: Nanobody TCNB4 (VHH)
VHH: QRQLVESGGGLVQPGGSLRLSCAASGFTPGIYDIGWFRQAPGKEREGVSCISSRGSSTNYADSVKGRFIISRDNVKNTVYLQMNSLEPEDTAVYYCAAIYQPSNGCVLRPEYSYWGKGTPVTVSS
Regarding B3, the binding result in assay [1] and in assay [3] was “binds” in each case. The molecule further yielded a Kd in assay [2] of 5.2 nM.

B4: Nanobody TCNB11 (VHH)
VHH: QLQLVESGGGLVQAGGSLRLSCTASGRTGTMGWFRQGPGKEREFVASHKWVAGSTYYADSVKGRFTISRDNAKNTLYLQMNSLKSEDTAVYYCAASSQIFYGATTSIKDFNSWGKGTRVTVSS
Consider B4, for which the binding result in assay [1] is “binds”.
